Source: patent US20250101071A1 (PAUL EHRLICH INSTITUT BUNDESINSTITUT F R IMPFSTOFFE UND …, published 2025)

B1: recombinant human CD32a extracellular domain with C-terminal His-tag, biotinylated (H167R) (receptor)
chain: QAAAPPKAVLKLEPPWINVLQEDSVTLTCQGARSPESDSIQWFHNGNLIPTHTQPSYRFKANNNDSGEYTCQTGQTSLSDPVHLTVLSEWLVLQTPHLEFQEGETIMLRCHSWKDKPLVKVTFFQNGKSQKFSRLDPTFSIPQANHSHSGDYHCTGNIGYTLFSSKPVTITVQVPSMGSSSPMG
notes: also called CD32a-His; recombinant CD32a protein; not shown: C-terminal His-tag
B2: DARPin 53.A8 (designed binder)
chain: DLGKKLLEATRAGQDDEVRILMANGANVNATDEEGLTPLHLAALDGHLEIVEVLLKYGADVNADDMHGPTPLHLAAYAGHLEIVEVLLKYGADVNAYDCGGHTPLHLAARLGHLEIVEVLLKYGADVNAQDKFGKTPFDLAIDNGNEDIAEVLQKAA

Legend:
Assay in all cases: SPR, Biacore T200, biotinylated CD32a on neutravidin chip, DARPin as analyte
[1] = target: DARPin 53.H3
[2] = target: DARPin 53.2F11[TEV]
[3] = target: DARPin 53.D8
[4] = target: DARPin 53.2.F11
[5] = target: DARPin 53.C8
[6] = target: DARPin 52.H6
[7] = target: B1

Measured: Kd

B1
not listed: [7]
< 2 nM: all other assays above

B2
< 2 nM: [7]
